From patent US20060183194A1 (Genentech, published 2006)
Positions count from the first letter of the chain named. Numbers in names are those of the source.

B1: TH-WT: thioredoxin fused at its C-terminus to wild-type HRG-β1 146-244 (ligand)
chain: DDDDKAYVSSESPIRISVSTEGANTSSSTSTSTTGTSHLVKCAEKEKTFCVNGGECFMVKDLSNPSRYLCKCPNEFTGDRCQNYVMASFYKHLGIEFMEAEELY
notes: also called Trx-wild-type HRG-β1; not shown: thioredoxin (Trx) from pTrxFus
B2: recombinantly produced HRG-β1 177-244 (soluble) (ligand)
chain: SHLVKCAEKEKTFCVNGGECFMVKDLSNPSRYLCKCPNEFTGDRCQNYVMASFYKHLGIEFMEAEELY
B3: HRG-β1 177-244 V199A on phage (ligand)
chain: B2 chain with V23A
notes: not shown: M13 pIII fragment from residue 247 to the C-terminus (phage display carrier) and any cloning-site junction
B4: HRG-β1 177-244 R207A on phage (ligand)
chain: B2 chain with R31A
notes: as for B3
B5: HRG-β1 177-244 E215A on phage (ligand)
chain: B2 chain with E39A
notes: as for B3
B6: HRG-β1 177-244 E195A on phage (ligand)
chain: B2 chain with E19A
notes: not shown: M13 pIII C-terminal fragment (from pIII residue 247), the phage display partner
B7: HRG-β1 177-244 F229A on phage (ligand)
chain: B2 chain with F53A
notes: as for B6
B8: HRG-β1 177-244 L179A on phage (ligand)
chain: B2 chain with L3A
notes: as for B6
B9: HRG-β1 177-244 N192A on phage (ligand)
chain: B2 chain with N16A
notes: as for B6
B10: HRG-β1 177-244 S177A on phage (ligand)
chain: B2 chain with S1A
notes: as for B6
B11: HRG-β1 177-244 Y224A on phage (ligand)
chain: B2 chain with Y48A
notes: as for B6
B12: HRG-β1 177-244 K211A on phage (ligand)
chain: B2 chain with K35A
notes: as for B3
B13: HRG-β1 177-244 K200A on phage (ligand)
chain: B2 chain with K24A
notes: also called K2OO; not shown: M13 pIII fragment from residue 247 to the C-terminus (phage display carrier) and any cloning-site junction
B14: HRG-β1 177-244 G193A on phage (ligand)
chain: B2 chain with G17A
notes: as for B6
B15: HRG-β1 177-244 H178A on phage (ligand)
chain: B2 chain with H2A
notes: as for B6
B16: HRG-β1 177-244 P205A on phage (ligand)
chain: B2 chain with P29A
notes: as for B3
B17: HRG-β1 177-244 G194A on phage (ligand)
chain: B2 chain with G18A
notes: as for B6
B18: HRG-β1 177-244 T217A on phage (ligand)
chain: B2 chain with T41A
notes: as for B3
B19: HRG4: HRG-β1 147-227 displayed on phage, fused to pIII 247 (ligand, phage M13)
chain: YVSSESPIRISVSTEGANTSSSTSTSTTGTSHLVKCAEKEKTFCVNGGECFMVKDLSNPSRYLCKCPNEFTGDRCQNYVMAGGSGGGSGSGDFDYEKMANANKGAMTENADENALQSDAKGKLDSVATDYGAAIDGFIGDVSGLANGNGATGDFAGSNSQMAQVGDGDNSPLMNNFRQYLPSLPQSVECRPFVFSAGKPYEFSIDCDKINLFRGVFAFLLYVATFMYVFSTFANILRNKES
notes: range 247-C-terminus; Monovalent phage display; also called pHRG4-g3

Assays:
[1] = biological target: T1, ErbB-3 receptor-Ig fusion (human, UniProt P21860 20-643); assay: displacement of 125I-HRG-β1 177-244 from plate-bound ErbB-3-Ig
T1 construct: extracellular domain;range 224-C-terminus; also called ErbB-3-Ig; 3/3 homodimer; not shown: human IgG heavy chain constant region from His224 (hinge) on

[2] = biological target: T2, ErbB-4 receptor-Ig fusion (human, UniProt Q15303 26-651); assay: displacement of 125I-HRG-β1 177-244 from plate-bound ErbB-4-Ig
T2 construct: extracellular domain;range 224-C-terminus; also called ErbB-4-Ig; not shown: human IgG heavy chain constant region from His224 (hinge) on
T2 sequence: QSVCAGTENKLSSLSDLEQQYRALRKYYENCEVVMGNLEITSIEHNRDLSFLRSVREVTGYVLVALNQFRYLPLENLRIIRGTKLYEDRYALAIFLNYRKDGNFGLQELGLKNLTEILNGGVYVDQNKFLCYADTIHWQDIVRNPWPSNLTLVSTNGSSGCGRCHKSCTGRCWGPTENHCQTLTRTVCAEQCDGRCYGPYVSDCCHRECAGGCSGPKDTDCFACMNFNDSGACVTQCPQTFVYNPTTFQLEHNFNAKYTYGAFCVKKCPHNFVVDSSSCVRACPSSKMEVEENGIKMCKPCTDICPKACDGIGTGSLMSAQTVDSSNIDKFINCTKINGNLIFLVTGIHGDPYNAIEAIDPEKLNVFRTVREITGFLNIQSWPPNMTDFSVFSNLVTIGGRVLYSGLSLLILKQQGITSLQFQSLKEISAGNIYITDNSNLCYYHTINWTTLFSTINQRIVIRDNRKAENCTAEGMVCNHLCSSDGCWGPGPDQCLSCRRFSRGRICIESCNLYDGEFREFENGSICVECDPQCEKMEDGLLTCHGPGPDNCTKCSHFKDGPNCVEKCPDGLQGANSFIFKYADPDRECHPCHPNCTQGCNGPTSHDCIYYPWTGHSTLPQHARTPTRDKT

[3] = biological target: T2, ErbB-4 receptor-Ig fusion; assay: phage ELISA; soluble ErbB-4-Ig as competitor
Description: (§1) Microtiter plates (Nunc Maxisorp™ 96-well plates, Inter Med, Denmark) for phage ELISA were prepared as follows. The wells were precoated overnight with 0.5 μg of rabbit anti-human IgG (Fc gamma fragment-specific) antibodies (Jackson Immunoresearch, West Grove, Pa.) in 100 μL 50 mM NaCO₃ (pH 9.6). The wells were blocked for 30 minutes (min) with 200 μL PBS containing 0.1% bovine serum albumin (BSA) and rinsed with wash buffer (PBS containing 0.05% Tween 20™). The wells were then coated with 0.1 μg ErbB-2/3-Ig in binding buffer (PBS, 0.1% BSA, 0.05% Tween 20™) for 1 h, and washed again.
(§2) Serial dilutions of soluble ErbB-2/3-Ig (competitor) and a concentration of phage predetermined to give 60% saturation (without competitor) were added to the wells in 100 μL binding buffer. Following incubation for 2 h at room temperature, plates were washed extensively and treated with a 1:900 dilution of anti-M13 horseradish peroxidase conjugate (Pharmacia, Piscataway, N.J.) for 20 min. The amount of phage binding was determined by assaying horseradish peroxidase activity using o-phenylenediamine dihydrochloride) substrate solution (Sigma Chemical Company, St. Louis, Mo.). EC₅₀ values were calculated as the concentration of soluble ErbB-2/3-Ig required to compete half of the phage off the plate.

[4] = biological target: T1, ErbB-3 receptor-Ig fusion; assay: phage ELISA; soluble ErbB-3-Ig as competitor
Description: as §1, §2

[5] = biological target: T3, ErbB-2/3 receptor-Ig fusion (human, UniProt P04626 23-652; P21860 20-643); assay: phage ELISA; soluble ErbB-2/3-Ig competes phage off plate-bound ErbB-2/3-Ig
T3 construct: extracellular domain;range 224-C-terminus; Co-expressed in HEK-293; also called ErbB-2/3-Ig; 2/3-heterodimer; not shown: human IgG heavy chain constant region from His224 (hinge) on

T1 sequence (P21860 other isoform, or with tags, fused parts or gaps): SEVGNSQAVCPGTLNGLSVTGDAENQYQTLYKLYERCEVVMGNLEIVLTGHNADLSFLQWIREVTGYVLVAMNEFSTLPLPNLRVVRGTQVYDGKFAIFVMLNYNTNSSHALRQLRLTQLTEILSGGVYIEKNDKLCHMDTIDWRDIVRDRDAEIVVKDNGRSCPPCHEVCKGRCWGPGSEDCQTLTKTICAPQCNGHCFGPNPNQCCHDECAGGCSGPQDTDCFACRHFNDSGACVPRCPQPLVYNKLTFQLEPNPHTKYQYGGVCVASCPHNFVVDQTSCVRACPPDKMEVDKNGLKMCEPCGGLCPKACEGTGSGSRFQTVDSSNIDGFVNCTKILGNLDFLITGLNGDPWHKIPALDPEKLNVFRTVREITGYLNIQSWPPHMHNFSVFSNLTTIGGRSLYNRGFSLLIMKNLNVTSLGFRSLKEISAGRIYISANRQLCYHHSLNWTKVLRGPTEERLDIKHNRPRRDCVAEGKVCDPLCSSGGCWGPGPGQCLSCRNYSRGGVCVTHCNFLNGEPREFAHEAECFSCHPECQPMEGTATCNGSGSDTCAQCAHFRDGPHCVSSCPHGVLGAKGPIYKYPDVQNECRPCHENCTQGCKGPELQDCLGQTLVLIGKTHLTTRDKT

Row | Molecule | EC50 [1] [nM] | EC50 [2] [nM] | EC50 [3] [nM] | further results
1 | Trx-HRG-β1 146-244 F189A fusion (soluble) (from UniProt Q6DR98 147-244) (ligand) | 975 | 565 |  | 
2 | Trx-HRG-β1 146-244 G193A fusion (soluble) (from UniProt Q6DR98 147-244) (ligand) | 26.9 | 76.3 |  | 
3 | Trx-HRG-β1 146-244 V199A fusion (soluble) (from UniProt Q6DR98 147-244) (ligand) |  | 246 |  | 
4 | Trx-HRG-β1 146-244 H178A fusion (soluble) (from UniProt Q6DR98 147-244) (ligand) | 476 | 138 |  | 
5 | Trx-HRG-β1 146-244 P205A fusion (soluble) (from UniProt Q6DR98 147-244) (ligand) | 39.5 | 34.2 |  | 
6 | Trx-HRG-β1 146-244 S177A fusion (soluble) (from UniProt Q6DR98 147-244) (ligand) | 129 | 54.6 |  | 
7 | Trx-HRG-β1 146-244 R207A fusion (soluble) (from UniProt Q6DR98 147-244) (ligand) | 245 | 24.3 |  | 
8 | Trx-HRG-β1 146-244 G218A fusion (soluble) (from UniProt Q6DR98 147-244) (ligand) | 668 | 608 |  | 
9 | Trx-HRG-β1 146-244 E215A fusion (soluble) (from UniProt Q6DR98 147-244) (ligand) | 156 | 104 |  | 
10 | Trx-HRG-β1 146-244 T217A fusion (soluble) (from UniProt Q6DR98 147-244) (ligand) | 145 | 32.7 |  | 
11 | Trx-HRG-β1 146-244 K211A fusion (soluble) (from UniProt Q6DR98 147-244) (ligand) | 248 | 124 |  | 
12 | Trx-HRG-β1 146-244 E195A fusion (soluble) (from UniProt Q6DR98 147-244) (ligand) | 42 | 13.2 |  | 
13 | Trx-HRG-β1 146-244 Y224A fusion (soluble) (from UniProt Q6DR98 147-244) (ligand) | 339 | 24.5 |  | 
14 | Trx-HRG-β1 146-244 L179A fusion (soluble) (from UniProt Q6DR98 147-244) (ligand) | 394 | 51.7 |  | 
15 | Trx-HRG-β1 146-244 N192A fusion (soluble) (from UniProt Q6DR98 147-244) (ligand) | 1640 | 696 |  | 
16 | Trx-HRG-β1 146-244 K200A fusion (soluble) (from UniProt Q6DR98 147-244) (ligand) | 45.4 | 16.9 |  | 
17 | Trx-HRG-β1 146-244 F229A fusion (soluble) (from UniProt Q6DR98 147-244) (ligand) | 177 | 89.9 |  | 
18 | Trx-HRG-β1 146-244 G194A fusion (soluble) (from UniProt Q6DR98 147-244) (ligand) | 1210 | 275 |  | 
19 | Trx-HRG-β1 146-244 F216A fusion (soluble) (from UniProt Q6DR98 147-244) (ligand) | 2550 | 173 |  | 

Row | Molecule | EC50 [1] [nM] | EC50 [2] [nM] | EC50 [3] [nM] | further results
20 | B1 | 47.6 | 15.4 |  | 
21 | B2 | 9 | 14.8 |  | 
22 | B3 |  |  | 47 | EC50 [4]: 27 nM
23 | B4 |  |  | 30 | 
24 | B5 |  |  | 32 | EC50 [4]: 51 nM
25 | B6 |  |  | 24 | 
26 | B7 |  |  |  | EC50 [4]: 6 nM
27 | B8 |  |  | 56 | EC50 [4]: ~1000 nM
28 | B9 |  |  | 188 | 
29 | B10 |  |  | 83 | EC50 [4]: 67 nM
30 | B11 |  |  | 51 | EC50 [4]: 865 nM
31 | B12 |  |  | 59 | 
32 | B13 |  |  | 25 | EC50 [4]: 20 nM
33 | B14 |  |  | 23 | 
34 | B15 |  |  | 32 | 
35 | B16 |  |  | 8 | EC50 [4]: 22 nM
36 | B17 |  |  | 65 | EC50 [4]: 500 nM
37 | B18 |  |  | 14.2 | 
38 | B19 |  |  |  | EC50 [5]: 38 nM
